Like-named read-outs stand apart in the source and are kept apart here. Where no end group is shown, it is not given here. The star is where a group is joined. For = O=C*
Legend:
[1] = molecular target: T1, FLAG-tagged mouse Fpr2 (Mm_Fpr2) (mouse, UniProt O88536 1-351)
T1 sequence (looked up): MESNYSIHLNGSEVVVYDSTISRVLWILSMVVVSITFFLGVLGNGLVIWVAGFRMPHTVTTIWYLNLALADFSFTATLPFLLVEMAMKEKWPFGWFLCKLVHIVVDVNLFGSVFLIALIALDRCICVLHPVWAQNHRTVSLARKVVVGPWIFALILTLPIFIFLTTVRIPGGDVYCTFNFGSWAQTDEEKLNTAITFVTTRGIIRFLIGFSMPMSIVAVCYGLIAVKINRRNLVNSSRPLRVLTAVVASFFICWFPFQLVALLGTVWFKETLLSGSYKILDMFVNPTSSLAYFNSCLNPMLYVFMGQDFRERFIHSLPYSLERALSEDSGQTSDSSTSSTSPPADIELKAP

[2] = molecular target: T1, FLAG-tagged mouse Fpr2 (Mm_Fpr2); remark: listed apart in the source
[3] = molecular target: T2, FLAG-Hs_FPR2 C-terminally fused to Renilla Luciferase 8 (human, UniProt P25090 1-351); assay: cell-based or functional assay
T2 sequence (looked up): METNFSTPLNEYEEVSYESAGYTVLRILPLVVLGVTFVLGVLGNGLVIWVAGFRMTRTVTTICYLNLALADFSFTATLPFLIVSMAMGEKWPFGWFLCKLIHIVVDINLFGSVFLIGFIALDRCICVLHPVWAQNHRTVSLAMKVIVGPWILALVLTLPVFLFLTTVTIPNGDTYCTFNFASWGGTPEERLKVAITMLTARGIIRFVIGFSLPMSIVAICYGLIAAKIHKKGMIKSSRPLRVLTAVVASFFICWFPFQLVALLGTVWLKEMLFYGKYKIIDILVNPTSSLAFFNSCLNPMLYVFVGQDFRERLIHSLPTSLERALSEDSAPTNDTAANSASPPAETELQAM

[4] = molecular target: T3, FLAG-Mm_Fpr2 C-terminally fused to Renilla Luciferase 8 (mouse, UniProt O88536 1-351); assay: cell-based or functional assay
T3 sequence (looked up): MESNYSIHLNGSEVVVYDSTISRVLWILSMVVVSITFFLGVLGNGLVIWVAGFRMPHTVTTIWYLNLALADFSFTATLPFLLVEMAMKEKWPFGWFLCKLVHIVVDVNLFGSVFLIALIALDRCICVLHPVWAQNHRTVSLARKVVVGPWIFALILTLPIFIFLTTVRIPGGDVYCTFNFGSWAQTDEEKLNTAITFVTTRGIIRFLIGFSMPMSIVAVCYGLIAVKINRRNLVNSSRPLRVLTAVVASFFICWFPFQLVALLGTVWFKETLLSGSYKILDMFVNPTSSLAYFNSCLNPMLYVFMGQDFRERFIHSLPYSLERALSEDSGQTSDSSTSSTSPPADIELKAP

[5] = molecular target: T4, FLAG-Hs_FPR1 C-terminally fused to Renilla Luciferase 8 (human, UniProt P21462 1-350); assay: cell-based or functional assay
T4 sequence (looked up): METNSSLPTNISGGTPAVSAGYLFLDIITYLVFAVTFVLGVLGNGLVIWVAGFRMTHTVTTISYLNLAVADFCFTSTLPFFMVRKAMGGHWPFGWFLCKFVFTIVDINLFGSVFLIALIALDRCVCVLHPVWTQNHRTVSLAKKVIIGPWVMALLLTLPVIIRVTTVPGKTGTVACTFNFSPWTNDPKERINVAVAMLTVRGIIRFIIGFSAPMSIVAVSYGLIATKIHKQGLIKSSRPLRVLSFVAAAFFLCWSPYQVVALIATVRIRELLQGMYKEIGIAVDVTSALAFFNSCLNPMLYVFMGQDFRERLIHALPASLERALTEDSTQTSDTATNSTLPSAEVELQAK

[6] = molecular target: T5, FLAG-Mm_Fpr1 C-terminally fused to Renilla Luciferase 8 (mouse, UniProt P33766 1-364); assay: cell-based or functional assay
T5 sequence (looked up): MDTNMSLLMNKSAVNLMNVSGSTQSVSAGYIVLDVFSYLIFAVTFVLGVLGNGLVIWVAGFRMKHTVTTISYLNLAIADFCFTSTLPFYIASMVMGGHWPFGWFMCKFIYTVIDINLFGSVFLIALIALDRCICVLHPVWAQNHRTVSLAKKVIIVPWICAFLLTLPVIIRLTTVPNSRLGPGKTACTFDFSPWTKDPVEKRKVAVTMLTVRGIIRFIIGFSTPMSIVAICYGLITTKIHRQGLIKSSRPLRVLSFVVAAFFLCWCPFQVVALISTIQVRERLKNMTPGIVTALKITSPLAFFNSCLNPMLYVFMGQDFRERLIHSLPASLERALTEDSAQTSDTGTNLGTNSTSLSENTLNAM

[7] = molecular target: T6, FLAG-tagged human FPR1 (Hs_FPR1) (human, UniProt P21462 1-350); assay: cell-based or functional assay
T6 sequence (looked up): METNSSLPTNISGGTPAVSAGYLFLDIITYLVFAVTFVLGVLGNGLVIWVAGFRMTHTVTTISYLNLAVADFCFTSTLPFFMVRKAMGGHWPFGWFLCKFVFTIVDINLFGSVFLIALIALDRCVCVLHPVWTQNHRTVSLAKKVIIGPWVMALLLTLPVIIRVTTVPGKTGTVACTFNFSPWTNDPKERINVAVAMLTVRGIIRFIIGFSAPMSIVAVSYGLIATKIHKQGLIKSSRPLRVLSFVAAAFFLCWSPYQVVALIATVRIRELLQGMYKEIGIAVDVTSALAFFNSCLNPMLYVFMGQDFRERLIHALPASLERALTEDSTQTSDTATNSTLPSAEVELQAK

[8] = molecular target: T7, FLAG-tagged human FPR2 (Hs_FPR2) (human, UniProt P25090 1-351); assay: cell-based or functional assay
T7 sequence (looked up): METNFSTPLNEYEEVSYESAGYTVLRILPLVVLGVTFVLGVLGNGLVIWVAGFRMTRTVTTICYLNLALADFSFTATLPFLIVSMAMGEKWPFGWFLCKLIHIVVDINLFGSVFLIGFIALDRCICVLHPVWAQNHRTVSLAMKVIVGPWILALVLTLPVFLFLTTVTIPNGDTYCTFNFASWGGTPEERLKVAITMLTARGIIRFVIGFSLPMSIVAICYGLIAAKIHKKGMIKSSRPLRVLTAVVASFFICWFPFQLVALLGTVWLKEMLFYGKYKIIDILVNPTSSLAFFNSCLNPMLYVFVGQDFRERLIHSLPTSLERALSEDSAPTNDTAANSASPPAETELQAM

[9] = molecular target: T1, FLAG-tagged mouse Fpr2 (Mm_Fpr2); assay: cell-based or functional assay
[10] = molecular target: T8, FLAG-tagged mouse Fpr1 (Mm_Fpr1) (mouse, UniProt P33766 1-364); assay: cell-based or functional assay
T8 sequence (looked up): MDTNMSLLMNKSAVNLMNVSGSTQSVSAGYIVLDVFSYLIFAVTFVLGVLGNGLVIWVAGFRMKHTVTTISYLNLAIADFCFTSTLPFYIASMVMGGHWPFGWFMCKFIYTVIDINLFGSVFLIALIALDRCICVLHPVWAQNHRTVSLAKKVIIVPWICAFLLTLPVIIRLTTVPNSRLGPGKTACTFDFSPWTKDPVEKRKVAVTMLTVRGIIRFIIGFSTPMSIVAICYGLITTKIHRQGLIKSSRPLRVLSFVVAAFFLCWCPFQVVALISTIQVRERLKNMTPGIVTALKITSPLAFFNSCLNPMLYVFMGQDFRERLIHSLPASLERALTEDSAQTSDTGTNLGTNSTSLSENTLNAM

[11] = molecular target: T6, FLAG-tagged human FPR1 (Hs_FPR1); assay: flow cytometry on cells; competition binding: HEK293 cells stably expressing the receptor, lifted in PBS, on ice 90 min with 10 nM K(5/6-FAM)-WKYMVm and increasing unlabeled ligand; mean fluorescence of 5000 cells as % of that without competitor; One site-Fit logIC50
[12] = molecular target: T7, FLAG-tagged human FPR2 (Hs_FPR2); assay: as above
[13] = molecular target: T1, FLAG-tagged mouse Fpr2 (Mm_Fpr2); assay: as above
[14] = molecular target: T8, FLAG-tagged mouse Fpr1 (Mm_Fpr1); assay: as above
[15] = molecular target: T2, FLAG-Hs_FPR2 C-terminally fused to …; assay: cell-based or functional assay; remark: listed apart in the source
[16] = molecular target: T3, FLAG-Mm_Fpr2 C-terminally fused to …; assay: cell-based or functional assay; remark: listed apart in the source
[17] = molecular target: T4, FLAG-Hs_FPR1 C-terminally fused to …; assay: cell-based or functional assay; remark: listed apart in the source
[18] = molecular target: T5, FLAG-Mm_Fpr1 C-terminally fused to …; assay: cell-based or functional assay; remark: listed apart in the source
[19] = molecular target: T6, FLAG-tagged human FPR1 (Hs_FPR1); assay: cell-based or functional assay; remark: listed apart in the source
[20] = molecular target: T7, FLAG-tagged human FPR2 (Hs_FPR2); assay: cell-based or functional assay; remark: listed apart in the source
[21] = molecular target: T1, FLAG-tagged mouse Fpr2 (Mm_Fpr2); assay: cell-based or functional assay; remark: listed apart in the source
[22] = molecular target: T8, FLAG-tagged mouse Fpr1 (Mm_Fpr1); assay: cell-based or functional assay; remark: listed apart in the source

B1: MCT-2 (Formyl-… from Cytochrome b) (peptide)
peptide: For-MTPMRKINPLMKLIN
ERK1/2 phosphorylation (Western blot): Emax (% of 1 μM WKYMVm) [1]: 169% | ERK1/2 phosphorylation (Western blot): Log EC50 (M) [1]: -6.96 log M | receptor internalization (flow cytometry): Emax (% of 1 μM WKYMVm) [2]: 43.9% | receptor internalization (flow cytometry): Log EC50 (M) [2]: -8.24 log M

B2: WKYMVM (peptide)
peptide: WKYMVM
notes: synthetic hexapeptide, all L residues; also called L-enantiomer of WKYMVm; source: bought: Tocris
BRET of receptor-RLuc8 with Arrestin 3-YFP: Emax (% of 1 μM WKYMVm) [3]: 94.8% | BRET of receptor-RLuc8 with Arrestin 3-YFP: Emax (% of 1 μM WKYMVm) [4]: 94.3% | BRET of receptor-RLuc8 with Arrestin 3-YFP: Log EC50 (M) [4]: -6.59 log M | BRET of receptor-RLuc8 with Arrestin 3-YFP: Emax (% of 1 μM WKYMVm) [5]: 75% | BRET of receptor-RLuc8 with Arrestin 3-YFP: Emax (% of 1 μM WKYMVm) [6]: 83.1% | BRET of receptor-RLuc8 with Arrestin 3-YFP: Log EC50 (M) [6]: -5.56 log M | receptor internalization (flow cytometry): Emax (% of 1 μM WKYMVm) [7]: 101% | receptor internalization (flow cytometry): Emax (% of 1 μM WKYMVm) [8]: 82.3% | receptor internalization (flow cytometry): Emax (% of 1 μM WKYMVm) [9]: 75.6% | receptor internalization (flow cytometry): Log EC50 (M) [9]: -6.96 log M | receptor internalization (flow cytometry): Emax (% of 1 μM WKYMVm) [10]: 99.4% | receptor internalization (flow cytometry): Log EC50 (M) [10]: -6.29 log M | Max Comp (%) [11]: 94.9% | Max Comp (%) [12]: 99.8% | Log IC50 [13]: -6.23 log M | Max Comp (%) [13]: 100% | Log IC50 [14]: -5.55 log M | Max Comp (%) [14]: 85.4% | BRET of receptor-RLuc8 with Venus-mGsi: Emax (% of 1 μM WKYMVm) [15]: 79.2% | BRET of receptor-RLuc8 with Venus-mGsi: Emax (% of 1 μM WKYMVm) [16]: 87.9% | BRET of receptor-RLuc8 with Venus-mGsi: Log EC50 (M) [16]: -6.49 log M | BRET of receptor-RLuc8 with Venus-mGsi: Emax (% of 1 μM WKYMVm) [17]: 44.1% | BRET of receptor-RLuc8 with Venus-mGsi: Emax (% of 1 μM WKYMVm) [18]: 37.5% | BRET of receptor-RLuc8 with Venus-mGsi: Log EC50 (M) [18]: -5.68 log M | ERK1/2 phosphorylation (Western blot): Emax (% of 1 μM WKYMVm) [19]: 141% | ERK1/2 phosphorylation (Western blot): Emax (% of 1 μM WKYMVm) [20]: 125% | ERK1/2 phosphorylation (Western blot): Emax (% of 1 μM WKYMVm) [21]: 128% | ERK1/2 phosphorylation (Western blot): Log EC50 (M) [21]: -7.91 log M | ERK1/2 phosphorylation (Western blot): Emax (% of 1 μM WKYMVm) [22]: 118% | ERK1/2 phosphorylation (Western blot): Log EC50 (M) [22]: -7.08 log M

From PMC12881670, “Investigation into ligand selectivity and bias at the formyl peptide receptor family” (The Journal of Pharmacology and Experimental Therapeutics, 2025)
